Assay results taken from patent US20240218057A1 (ROCKEFELLER UNIVERSITY, published 2024).
Substitutions are numbered along the chain they refer to.

B1: C1014 (antibody, V domains shown)
VH: QVQLQESGPGLVRPSQTLSLTCTVSGGSIGSGAYWSWIRQHPAKGLEWIGYVYYSGSTFYNPSLETRVSISVDISKDQFSLELTSVTVADTAVYYCAREKIEVVSIEMRPHYYGIDVWGQGTTVTVSS
VL: EIVMTQSPATLSVSPGERATLSCRASQSISSNLAWYQQKPGQPPRLLIYGASTRATGIPARFSGSGSGTEFTLTISSLQSEDIAVYYCQHYNNWPPWTFGQGTKVDIK
notes: IgG; V domains only
B2: C999 (antibody, V domains shown)
VH: QVQLVQSGAEVRRPGASVKVSCKASGYTLTHYYIHWVRQAPGQGLEWVGIINPDGDNTNYAQKFQGRVTMTRDTSTSTVYMELSSLRSEDTAIFYCARGGAIPALRSAFDIWGQGTMVTVSS
VL: DIQMTQSPSTLSASVGDRVTITCRASQSINNWLAWYQQKPGKAPKLLIYKASTLESGVPSRFSGSGSGTEFTLTISSLQPDDFATYYCQQYNSYFFGQGTKLEIK
notes: IgG; V domains only
B3: C1018 (antibody, V domains shown)
VH: QVQLVESGGGVVQPGRSLRLLCAASGFTFNTHGMHWVRQAPGKGLEWVAVIWFDGSNKYYADSVKGRFTISRDNSTNTLYLQMNSLRAEDTAVYYCARVYGGLPYYYAIDVWGQGTTVTVSS
VL: QSVLTQPPSVSGAPGQRVTISCAGSSSNIGAGYGVHWSQQLPGRPPKLLIYGDSNRPSGVPDRFSGSNSGTSASLAITGLQAEDEAVYYCQSYDRSLRAWVFGGGTKLSVL
notes: IgG; V domains only
B4: C1000 (antibody, V domains shown)
VH: QVQLQESGPGLVKPSQTLSLSCTVSGGSISSDDYYWSWIRQPPGKGLEWIGYIYYSGSTYYNSSLKSRVSISVDTSKNQFSLKLSSVTAADTAVYYCARWKRWLQFLYFDYWGQGTLVTVSS
VL: QSALTQPRSVSGSPGQSVTISCTGTSSDVGGYSFVSWYQQHPGKAPKVLIYDVDKRPSGVPDRLSGSKSGNTASLTISGLQAEDEADYYCCSYAGSYTLIFGGGTKLTVL
notes: IgG; V domains only
B5: C1008 (antibody, V domains shown)
VH: EVQLVESGGGLIQPGGSLRLSCAASGFTVSSNYMSWVRQAPGKGLEWVSVIYSGGSTYYADSVKGRFTISRDNSKNTLYLQMNSLRAEDTAVYYCARVVGYDFWSGYDGGYFDYWGQGTLVTVSS
VL: QSALTQPASVSGSPGQSITISCTGTSSDVGSYNLVSWYQQHPGKAPKLMIYEVSKRPSGVSNRFSGSKSGNTASLTISGLQAEDEADYYCCSYAGSSTWVFGGGTKLTVL
notes: IgG; V domains only
B6: C1009 (antibody, V domains shown)
VH: EVQLVESGGGLLQPGGSLRLSCAASGFSVSSNYMTWVRQAPGKGLEWVAAIYSGDSTYYVDSVKGRFIISRDNSKNTVYLHLSSLRAEDTAVYYCARLVGYDFRSGSDGGYFDYWGHGTLVTVSS
VL: B5 VL with V29I, S31N, E52D, A86T
notes: IgG; V domains only
B7: C1006 (antibody, V domains shown)
VH: QVQLVQSGAEVRKPGSSVKVSCKASGGPFDQYTFSWVRQAPGQGLEWMARITPVVDLTNYAQKFQGRITIITDKSTSTAYMELSSLRSEDTAIYYCATPLNDYYASGNLGLWGQGTLVTVSS
VL: DIQMTQSPSSLSASIGDRVTITCRASQGISYYLAWFQQKPGEAPRSLIYDASSLQSGVPSKFSGSGSGTDFTLTISSLQPEDSATYYCQQYNSYPLTFGGGTKVEIK
notes: IgG; V domains only
B8: C1007 (antibody, V domains shown)
VH: QVQLVQSGSEMKKPGSSVKVSCKAAGGTLNTHTFSWVRQAPGQGLEWMGRITPTVDLTNYAQKFQGRITITADTSTNTAYLELRRLRSEDTAIYYCATPLNDYYASGNLGLWGQGTLVTVSS
VL: B7 VL with R18T, Q38R, E42K, R45K, N92S, S93T
notes: IgG; V domains only
B9: C1023 (antibody, V domains shown)
VH: QVQLVQSGAEMKKPGASVKISCKASGDTFTTNYFHWVRQAPGQGLEWMGIINPSAGSTTYAQRFQGRVTMTGDSSTNTVYLELRSLRSEDTAMYFCAKGSYIPAMRSSFDPWGQGTLVTVSS
VL: EIVLTQSPGTLSLSPGERATLSCRASQSVSHRYLAWYQQKPGQAPRLLIDGASNRATGIPDRFSGSGSGTDFTLTISRLEPEDFGVYYCQQYGSSPPFTFGQGTKLEIK
notes: IgG; V domains only
B10: C1016 (antibody, V domains shown)
VH: QVQLQESGPGLVKPSGTLSLTCAVSGGPISSNHWWSWVRQPPGKGLEWIGEVYRNGNTNYHPSLKSRVTMSIDNSKNQFSLSLTSVTAADTAVYYCARGGDLAMGPEYLDFWGQGTLVTVSS
VL: QSALTQPASVSGSPGQSITISCTGTSSDVGANNYVSWYQQHPGKAPKLMIYDVINRPSGVSDRFSGSKSGNTASLTISGLQAEDEADYYCSSFSTSSTLLFGGGTKLTVL
notes: IgG; V domains only
B11: C1001 (antibody, V domains shown)
VH: QVQLQESGPGLVKPSQTLSLTCTVSGGSISSGDYYWTWIRQPPGKGLEWIGYIFYSGITYYSPSLKSRLTMSIDTSKSQFSLNLSSVTAADTAVYYCARWKRLLQSLHFDYWGQGILVTVSS
VL: QSALTQPRSVSGSPGQSVTISCTGTSSDVGSYDYVSWYQQHPGKAPKVMIYGVDERPSGVPHRFSGSKSGNTASLTISGLQADDEADYFCCFYAGSYTLLFGGGTKVTVL
notes: IgG; V domains only
B12: C1025 (antibody, V domains shown)
VH: EVQLVESGGGLVQPGRSLRLSCAASGFTFDDYAMHWVRQVPGKGLEWVSGVSWNGDSVGYADSMEGRFTISRDNAKNSLYLQMNSLRTEDTALYYCAKGVDYSSSSNFDFWGQGTLVTVSS
VL: DIQMTQSPSSVSASVGDRVTITCRASQGISSWLAWYQQKPGKAPKLLISLASSLQSGVPSRFSGSGSETDFTLIISSLQPEDFATYYCQQSSSFPLTFGGGTKVEIK
notes: IgG; V domains only
B13: C1003 (antibody, V domains shown)
VH: QVQLVESGGGVVQPGRSLRLSCAASGFAFSSYGMNWVRQAPGKGLEWVTTVSSDGNVNYYIDSVKGRFTISRDNSKNTLYLQMNSLRGDDTAVYYCAKGPRFGWSYRGGSGFDIWGQGTMVTVSS
VL: DIQMTQSPSSLSASVGDRVTITCQASQDISNYLNWYQQKPGKAPKLLIYDASNLETGVPSRFSGSGSGTDFTFTITSLQPEDIATYYCQQYDNLPITFGQGTRLEIK
notes: IgG; V domains only
B14: C1002 (antibody, V domains shown)
VH: EVQLVESGGGLVQPGGSLRLSCAASEFIVSSNYMTWVRQAPGKGLEWVSIMYPGGSTFYADSVKGRFTISRDNSKNTLYLQINRLRAEDTAVYYCARDIAGRLDYWGQGTLVTVSS
VL: DIQMTQSPSSLSASVGDRVTITCQASQDINNYLNWYQQKPGKAPKLLIYDASNLETGVPSRFSGSGSGTDFSFTISSLQPEDIATYYCQQYDNLSRLTFGGGTKVEIK
notes: IgG; V domains only
B15: C1011 (antibody, V domains shown)
VH: QVQLVESGGGVVQPGRSLRLSCAVSGFTFSHYAMHWVRQAPGKGLEWVAVISYDGADKYYADSVRGRFTIARDNSKNTLFLQMSSLRPEDTAVYYCAKKGQPYCGGDCHFYYLDYWGQGTLVTVSS
VL: B14 VL with N30S, Y32H, S72T, P80A, S95P, R96P, L97I, G101Q, K104R, V105L
notes: IgG; V domains only
B16: C1010 (antibody, V domains shown)
VH: QVQLVESGGGVVQPGRSLRLSCAASGFTFSSYAMHWVRQAPGKGLEWVAVISYDGSNKYYADSVKGRFTISRDNSKNTLYLQMNSLRAEDTAVYYCAKKGQPYCGGDCYFYYFDYWGQGTLVTVSS
VL: B14 VL with V15L, N30S, S72T, S95P, R96P, L97I, G101Q, K104R, V105L
notes: IgG; V domains only
B17: C1012 (antibody, V domains shown)
VH: QVQLVQSGAEVKKPGSSVKVSCKASGGTVNNYAINWVRQAPGQGLEWMGGIVPIFGTPNYAQKFQGRVTITADESTSTAYMELSSLRSEDTAVYYCAKVSLTLPIAAAPRFWFDSWGQGTLVTVSS
VL: EIVMTQSPATLSVSPGERATLSCRASQSVSSHLAWYQQKPGQAPRLLIYGASTRATGIPARFSGSGSGTEFTLTISSLQSEDFAVYYCQQYHNWPPALTFGGGTKVEIK
notes: IgG; V domains only
B18: C1013 (antibody, V domains shown)
VH: QVQLVQSGVEVKKPGSSVKVSCKASGGTFTDYAFSWVRQAPGQGLEWMGGIVPIFATPDYAEKFRGRVTITADESTSTAYMELSTLKSEDTAVYYCARASLTLPIRAAPRFWFDAWGQGTLVTVSS
VL: B17 VL with S28G, S31T, N93K
notes: IgG; V domains only
B19: C1022 (antibody, V domains shown)
VH: QVQLVQSGAEVKTPGASVKVSCQASGDTFTSQYLHWVRQAPGQGLEWMGIINPTAGSTTYAQKFQGRVTMTRDTSTSTVYMELRSLRSEDMAVYYCARGGFIPMVRGFIDHWGQGTLVTVSS
VL: QSALTQPASVSGSPGQSITISCTGTSSDVGGYNYVSWYQQHPGKAPKLMIYDVSNRPSGVSTRFSGSKSGNTASLTISGLQAEDEADYYCSSPTSSNTHVFGTGTKVTVL
notes: IgG; V domains only
B20: C1020 (antibody, V domains shown)
VH: QVQLVQSGAEVKKPGASVKISCKASGYSFSNYYIHWVRQAPGQGLEWMGIINPSGNSISYAQKFQGRVTMTGDTSTSTVYMELSSLRSEDTAVYYCARSVFPVPAAGGCDYWGQGTLVTVSS
VL: DIQMTQSPSSLSASVGDRVTITCRASQSITTSLNWYQQKPGKAPKLLIYSASTLESGVPSRFSGSGSGTDFTLTISSLQPEDFATYYCQQTYRAPPYTFGQGTKLEIK
notes: IgG; V domains only
B21: C1021 (antibody, V domains shown)
VH: QVQLVQSGAELKKPGASVKVSCKASGYTFSTYYIHWVRQAPGQGLEWMGIINPEAGSTSYAQKFQGRVTMTTDTSTSTVYMELISLRSQDTAIYYCARDAVGVPAINSLEYWGQGTLVTVSS
VL: EIVLTQSPATLSLSPGERATLSCRASQSISSYLAWYQQKPGQAPRLLIYDASNRATDISARFSGSGSGTDFTLTISSLEPEDFAVYYCQHRSNWPPSFTFGGGTKVEIK
notes: IgG; V domains only
B22: C1019 (antibody, V domains shown)
VH: QVQLVESGGGVVQPGTPLRLSCAASGFTFSSYAMHWVRQAPGKGLEWVAMISYDGGNKYYADSVKGRFTISRDNSKNTLFLQMNSLRGEDTAVYYCARSFSIRIGHKDNWGQGTLVTVSS
VL: NFMLTQPHSVSESPGKTVTISCTGSSGSIANNYVQWYQQRPGSAPTPVIYEDDQRPSGVPDRFSGSIDSSSNSASLSISGLKTEDEADYYCQSYDSTNFWVFGGGTKLTVL
notes: IgG; V domains only
B23: C1024 (antibody, V domains shown)
VH: QVQLVESGGGVVQPGRSLRLSCAASGFTFSDYAMHWVRQAPGKGLEWVAMISYDGNSQYYADSVKGRFTISRDNSKNTLYLQMNILRPEDTAVYYCARTFSIRIGHHDYWGQGTLVTVSS
VL: B22 VL with N31S, Q35H, P47T, Y50F, D53N, S77T, T97S, N98S
notes: IgG; V domains only

biological target: T1, SARS-COV-2 RBD (SARS-COV-2, UniProt P0DTC2 319-539); assay: ELISA, RBD coated
T1 construct: also called WT RBD

Binder	EC50
B1	2.95 ng/mL
B2	2.68 ng/mL
B3	3.09 ng/mL
B4	3.2 ng/mL
B5	17.2 ng/mL
B6	1.34 ng/mL
B7	2.04 ng/mL
B8	3.22 ng/mL
B9	1.13 ng/mL
B10	2.16 ng/mL
B11	3.23 ng/mL
B12	2.51 ng/mL
B13	1.82 ng/mL
B14	0.83 ng/mL
B15	1.49 ng/mL
B16	2.45 ng/mL
B17	3.29 ng/mL
B18	8.92 ng/mL
B19	1.66 ng/mL
B20	2.06 ng/mL
B21	2.53 ng/mL
B22	2.8 ng/mL
B23	2.37 ng/mL
